From patent US20170088610A1

Legend:
[1] = molecular target: human nerve growth factor (human), P01138
[2] = molecular target: human nerve growth factor (human), P01138; test: cell-based or functional assay
[3] = molecular target: human nerve growth factor (human), P01138; remark: listed apart in the source

Sequence of human nerve growth factor (human), P01138 (P01138 122-241 limits assumed): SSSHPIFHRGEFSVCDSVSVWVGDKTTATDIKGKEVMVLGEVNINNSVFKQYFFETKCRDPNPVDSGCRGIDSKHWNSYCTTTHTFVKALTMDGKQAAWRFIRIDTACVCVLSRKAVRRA

B1: antibody E3 (full antibody) (antibody, human IgG2, kappa)
heavy: QVQLQESGPGLVKPSETLSLTCTVSGFSLIGYDLNWIRQPPGKGLEWIGIIWGDGTTDYNSAVKSRVTISKDTSKNQFSLKLSSVTAADTAVYYCARGGYWYATSYYFDYWGQGTLVTVSSASTKGPSVFPLAPCSRSTSESTAALGCLVKDYFPEPVTVSWNSGALTSGVHTFPAVLQSSGLYSLSSVVTVPSSNFGTQTYTCNVDHKPSNTKVDKTVERKCCVECPPCPAPPVAGPSVFLFPPKPKDTLMISRTPEVTCVVVDVSHEDPEVQFNWYVDGVEVHNAKTKPREEQFNSTFRVVSVLTVVHQDWLNGKEYKCKVSNKGLPSSIEKTISKTKGQPREPQVYTLPPSREEMTKNQVSLTCLVKGFYPSDIAVEWESNGQPENNYKTTPPMLDSDGSFFLYSKLTVDKSRWQQGNVFSCSVMHEALHNHYTQKSLSLSPGK
light: not shown
modifications: not checked
- IC50 (read off the curve), NGF-dependent survival of E13.5 mouse trigeminal neurons (0.4 ng/ml human NGF, 48 h) (nM binding sites) [1]: 0.02
- NGF-elicited survival of E17/18 trigeminal neurons [2]: 20 nM
- IC50 (read off the curve), NGF-dependent survival of E13.5 trigeminal neurons (0.4 ng/ml human NGF, 48 h) [3]: 8 pM
